Reference: patent US20250179205A1 (Hoffmann-La Roche, published 2025)
One block for each binder: values may come before it.

Assays:
[1] = molecular target: T1, mouse fibroblast activation protein (mFAP) (mouse, UniProt P97321 1-761); test: flow cytometry on NIH/3T3-mFAP cells (3T3_mFAP), PE-labelled anti-human IgG Fcgamma F(ab')2 secondary, MFI baseline corrected
T1 construct: expressed on transfected NIH/3T3-mFAP clone 26 cells; also called murine FAP; mouse FAP
Procedure: (§1) NIH/3T3-huFAP clone 19 and NIH/3T3-mFAP clone 26 were generated by the transfection of the mouse embryonic fibroblast NIH/3T3 cell line (ATCC CRL-1658) with the expression vector pETR4921 to express under 1.5 μg/mL Puromycin selection huFAP or mFAP, respectively.
(§2) NIH/3T3-huFAP, NIH/3T3-mFAP or NIH/3T3-wt cells were cultured with 1× Dulbecco's Modified Eagle's Medium (DMEM) (Gibco, Cat. No. 42430-025) supplemented with 10% Fetal Bovine Serum (FBS) (life technologies, Cat. No. 16140, Lot No. 1797306A). For the NIH/3T3-huFAP and NIH/3T3-mFAP cells 1.5 μg/mL Puromycin (Gibco, Cat. No. A11138-03) was added to the medium for selection of FAP-expressing cells. NIH/3T3 cells were removed from the plate by using enzyme-free Cell Dissociation Buffer (Gibco, Cat. No. 13151014). 0.3×10⁵ NIH/3T3-huFAP clone 19, NIH/3T3-mFAP clone 26 or NIH/3T3-wt were added in 200 μl of 1×DMEM 10% FBS to each well of a round-bottom 96-well plate (Greiner Bio-One, CELLSTAR®, Cat. No. 650185). Plates were centrifuged 5 minutes at 1700 rpm and supernatants were flicked off. Cells were washed once with 200 μL of 4° C. cold FACS buffer (eBioscience, Cat. No. 00-4222-26). All samples were resuspended in 50 μL/well of 4° C. cold FACS buffer containing the bispecific antigen binding molecules (primary antibody) or isotype control antibody DP47 at the indicated range of concentrations (in duplicates) and incubated for 120 minutes at 4° C. Afterwards the cells were washed three times with 200 μL 4° C. cold FACS buffer. Cells were further stained with 25 μL/well of 4° C. cold secondary antibody solution (1:50 dilution of secondary antibody) containing R-Phycoerythrin (PE) conjugated AffiniPure F(ab′)₂ Fragment Goat Anti-Human IgG, Fcγ Fragment Specific (Jackson ImmunoResearch, Cat. No. 109-116-098) and incubated for 60 minutes at 4° C. in the dark. Cells were washed with 200 μl FACS buffer and resuspended in 85 μL/well FACS-buffer containing 0.2 μg/mL DAPI (Roche, Cat. No. 10236276001) and acquired the same day using 5-laser LSR-Fortessa (BD Bioscience with DIVA software). Data analysis was performed using the FlowJo version 10 software (FlowJo LLC).

[2] = molecular target: T2, His-tagged human dimeric FAP (recombinant FAP_ECD) (human, UniProt Q12884 27-760); test: SPR (Biacore T200), His-tagged dimeric huFAP ECD captured by anti-His, antibody as analyte, 1:1 fit (avidity)
T2 construct: also called hu FAP ectodomain + poly-lys-tag + his6-tag
Procedure: The capacity of the bispecific constructs to bind human FAP was assessed by surface plasmon resonance (SPR). All SPR experiments were performed on a BIACORE® T200 (BIACORE®) at 25° C. with HBS-EP as running buffer (0.01 M HEPES pH 7.4, 0.15 M NaCl, 3 mM EDTA, 0.005% Surfactant P20, (BIACORE®).
His-tagged human dimeric FAP (recombinant FAP_ECD) was captured on a CM5 chip (GE Healthcare) immobilized with anti-His antibody (Qiagen Cat. No. 34660) by injection of 500 nM huFAP for 60 s at a flow rate of 10 uL/min, 10 nM murine FAP for 20 s at a flow rate of 20 uL/min and 10 nM cynoFAP for 20 s at a flow rate of 20 uL/min. Immobilization levels for the anti-His antibody of up to 18000 resonance units (RU) were used. Following the capture step, the bispecific antibodies as well as control molecules were immediately passed over the chip surface at a concentration ranging from 0.78-100 nM with a flow rate of […] for 280 s and a dissociation phase of 180 s. Bulk refractive index differences were corrected for by subtracting the response obtained in a reference flow cell, where no FAP was immobilized. Avidity was determined using the Langmuir 1:1 curve fitting. For bivalent binding the same 1:1 fitting was used leading to an apparent KD value.

[3] = molecular target: T2, His-tagged human dimeric FAP …; test: method not stated; SPR as in Example 5.3.2 presumed
[4] = molecular target: T3, human fibroblast activation protein (huFAP) (human, UniProt Q12884 1-760); test: flow cytometry, NIH/3T3-huFAP clone 19 cells, PE anti-human Fc F(ab')2
T3 construct: expressed on transfected NIH/3T3-huFAP clone 19 cells; also called human FAP
Procedure: as §1, §2

human CD40 [5] = molecular target: T4, human CD40 (human, UniProt P25942 21-277); test: cell-based or functional assay
T4 sequence (P25942 21-277 limits assumed): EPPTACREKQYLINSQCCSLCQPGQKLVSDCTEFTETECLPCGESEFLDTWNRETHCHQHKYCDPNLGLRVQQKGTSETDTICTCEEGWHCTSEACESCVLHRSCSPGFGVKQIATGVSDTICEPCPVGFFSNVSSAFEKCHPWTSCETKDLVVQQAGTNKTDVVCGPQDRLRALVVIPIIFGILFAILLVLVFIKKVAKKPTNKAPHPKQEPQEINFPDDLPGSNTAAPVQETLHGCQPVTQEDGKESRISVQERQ

human CD40 [6] = molecular target: T4, human CD40; test: flow cytometry, Raji cells, Alexa488 anti-huIgG
Procedure: CD40 positive cells (Raji cells) were detached from the culture bottle using Trypsin and were counted using a Casy cell counter. After pelleting at 4° C., the cells were resuspended in FACS Buffer (2.5% FCS in PBS), adjusted to 2.0E+06 cells/mL, and dispensed to 96-well PP V-bottom-plates (25 μL/well=5.0E+04Zellen/well).
The CD40 specific antibodies were adjusted to 20 μg/mL in FACS buffer, resulting in a final concentration of 10 μg/mL. […] were added to 25 μl cell suspension and incubated for 1 h at 4° C. The cells were then washed twice in FACS buffer. After washing, the cells were resuspended in 50 μL FACS-buffer containing secondary antibody (<huIgG>-Alexa488, c=10 μg/mL) and incubated 1 h at 4° C. The cells were then washed twice in FACS buffer and resuspended in 70 μl/well FACS buffer for measurement using a FACS Canto (BD, Pharmingen).

human CD40 [7] = molecular target: T4, human CD40; test: flow cytometry, Daudi cells, PE anti-human Fc F(ab')2
Procedure: The binding to cell surface CD40 was tested using Daudi cells, a human B lymphoblast cell line with high expression levels of human CD40 (ATCC CCL-213). Daudi cells were cultured with 1× Dulbecco's Modified Eagle's Medium (DMEM) (Gibco, Cat. No. 42430-025) supplemented with 10% Fetal Bovine Serum (FBS) (life technologies, Cat. No. 16140, Lot No. 1797306A). 0.3×10⁵ Daudi cells were added in 200 μl of 1×DMEM with 10% FBS to each well of a round-bottom 96-well plate (Greiner Bio-One, CELLSTAR®, Cat. No. 650185). Plates were centrifuged 5 minutes at 1700 rpm and supernatants were flicked off. Cells were washed once with 200 μL of 4° C. cold FACS buffer (eBioscience, Cat. No. 00-4222-26). All samples were resuspended in 50 μL/well of 4° C. cold FACS buffer containing the bispecific antigen binding molecules (primary antibody) or isotype control antibody DP47 at the indicated range of concentrations (in duplicates) and incubated for 120 minutes at 4° C. Afterwards the cells were washed three times with 200 μL 4° C. cold FACS buffer. Cells were further stained with 25 μL/well of 4° C. cold secondary antibody solution (1:50 dilution of secondary antibody) containing R-Phycoerythrin (PE) conjugated AffiniPure F(ab′)₂ Fragment Goat Anti-Human IgG, Fcγ Fragment Specific (Jackson ImmunoResearch, Cat. No. 109-116-098) and incubated for 60 minutes at 4° C. in the dark. Cells were washed with 200 μl FACS buffer and resuspended in 85 μL/well FACS-buffer containing 0.2 μg/mL DAPI (Roche, Cat. No. 10236276001) and acquired the same day using a 5-laser LSR-Fortessa (BD Bioscience with DIVA software). Data analysis was performed using the FlowJo version 10 software (FlowJo LLC).

[8] = molecular target: T5, Human CD40 extracellular domain with C-terminal His-AviTag (human); test: SPR (Biacore), antibody captured by anti-human F(ab')2, CD40 ECD as analyte, 1:1 model
T5 construct: analyte in solution in the SPR assays; also called recombinant human CD40_ECD
T5 sequence (chain, as listed by the source limits assumed): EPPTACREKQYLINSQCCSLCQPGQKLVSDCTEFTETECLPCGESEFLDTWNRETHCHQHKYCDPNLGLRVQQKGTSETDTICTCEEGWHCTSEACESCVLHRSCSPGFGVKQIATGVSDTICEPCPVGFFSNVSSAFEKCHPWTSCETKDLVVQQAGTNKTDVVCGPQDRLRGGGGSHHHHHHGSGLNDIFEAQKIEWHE
Procedure: Around 12000 resonance units (RU) of the capturing system (10 μg/ml goat anti human F(ab)′₂; Order Code: 28958325; GE Healthcare Bio-Sciences AB, Sweden) were coupled on a CM5 chip (GE Healthcare BR-1005-30) at pH 5.0 by using an amine coupling kit supplied by the GE Healthcare. The sample and system buffer was PBS-T (10 mM phosphate buffered saline including 0.05% Tween20) pH 7.4. The flow cell was set to 25° C.—and the sample block set to 12° C.—and primed with running buffer twice. The antibody was captured by injecting a 50 nM solution for 30 sec at a flow of 5 μl/min. Association was measured by injection of human CD40 extra cellular domain or cynomolgus monkey CD40 extracellular domain in various concentrations in solution for 300 sec at a flow of 30 μl/min starting with 300 nM in 1:3 dilutions. The dissociation phase was monitored for up to 1200 sec and triggered by switching from the sample solution to running buffer. The surface was regenerated by 60 sec washing with a Glycine pH 2.1 solution at a flow rate of 30 μl/min. Bulk refractive index differences were corrected by subtracting the response obtained from a goat anti human F(ab′)₂ surface. Blank injections are also subtracted (=double referencing). For calculation of apparent KD and other kinetic parameters the Langmuir 1:1 model was used. The apparent Kd was calculated using the BIACORE® B4000 evaluation software (version 1.1).

human CD40 [9] = molecular target: T4, human CD40; test: cell-based or functional assay; remark: listed apart in the source
human CD40 [10] = molecular target: T4, human CD40; test: cell-based or functional assay; remark: listed apart in the source

T1 sequence (P97321 whole entry): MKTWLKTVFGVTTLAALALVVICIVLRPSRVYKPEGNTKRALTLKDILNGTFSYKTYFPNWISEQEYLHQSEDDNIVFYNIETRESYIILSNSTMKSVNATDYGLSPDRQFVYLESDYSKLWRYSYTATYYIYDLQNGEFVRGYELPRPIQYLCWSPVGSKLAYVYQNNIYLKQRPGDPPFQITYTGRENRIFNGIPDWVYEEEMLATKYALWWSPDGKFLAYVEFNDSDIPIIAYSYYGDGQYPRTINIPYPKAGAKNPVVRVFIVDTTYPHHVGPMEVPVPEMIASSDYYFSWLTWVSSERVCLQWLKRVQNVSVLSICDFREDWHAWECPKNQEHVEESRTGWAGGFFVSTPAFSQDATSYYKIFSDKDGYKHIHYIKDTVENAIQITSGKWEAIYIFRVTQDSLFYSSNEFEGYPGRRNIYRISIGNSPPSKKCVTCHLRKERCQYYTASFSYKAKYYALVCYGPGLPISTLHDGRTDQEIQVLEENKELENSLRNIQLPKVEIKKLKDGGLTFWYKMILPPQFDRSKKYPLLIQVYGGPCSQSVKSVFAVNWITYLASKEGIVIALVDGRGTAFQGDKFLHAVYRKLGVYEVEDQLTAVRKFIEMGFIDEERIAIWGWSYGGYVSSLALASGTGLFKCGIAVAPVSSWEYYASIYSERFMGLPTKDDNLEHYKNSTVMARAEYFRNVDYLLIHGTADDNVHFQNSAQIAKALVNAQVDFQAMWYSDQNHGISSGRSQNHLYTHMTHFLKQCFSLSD

EC50 (read off the curve) [1]: ~8 nM
Kd [2]: 6 nM
koff [2]: 0.00174 s⁻¹
kon [2]: 291000 M⁻¹ s⁻¹
Kd [3]: 1.5 nM
EC50 [4]: 7.99 nM
B1: P1AE0408 CD40 × FAP (28H1) (2 + 1) head to tail (bispecific antibody, human IgG1, kappa, L234A L235A)
heavy 1: not shown
heavy 2: EVQLVESGGGLVQPGGSLRLSCAASGYSFTGYYIHWVRQAPGKGLEWVARVIPNAGGTSYNQKFKGRFTLSVDNSKNTAYLQMNSLRAEDTAVYYCAREGIYWWGQGTLVTVSSASTKGPSVFPLAPSSKSTSGGTAALGCLVEDYFPEPVTVSWNSGALTSGVHTFPAVLQSSGLYSLSSVVTVPSSSLGTQTYICNVNHKPSNTKVDEKVEPKSCDKTHTCPPCPAPEAAGGPSVFLFPPKPKDTLMISRTPEVTCVVVDVSHEDPEVKFNWYVDGVEVHNAKTKPREEQYNSTYRVVSVLTVLHQDWLNGKEYKCKVSNKALGAPIEKTISKAKGQPREPQVCTLPPSRDELTKNQVSLSCAVKGFYPSDIAVEWESNGQPENNYKTTPPVLDSDGSFFLVSKLTVDKSRWQQGNVFSCSVMHEALHNRFTQKSLSLSPGK
light 1: DIQMTQSPSSLSASVGDRVTITCRSSQSLVHSNGNTFLHWYQQKPGKAPKLLIYTVSNRFSGVPSRFSGSGSGTDFTLTISSLQPEDFATYFCSQTTHVPWTFGQGTKVEIKRTVAAPSVFIFPPSDRKLKSGTASVVCLLNNFYPREAKVQWKVDNALQSGNSQESVTEQDSKDSTYSLSSTLTLSKADYEKHKVYACEVTHQGLSSPVTKSFNRGEC
light 2: EVQLLESGGGLVQPGGSLRLSCAASGFTFSSHAMSWVRQAPGKGLEWVSAIWASGEQYYADSVKGRFTISRDNSKNTLYLQMNSLRAEDTAVYYCAKGWLGNFDYWGQGTLVTVSSASVAAPSVFIFPPSDEQLKSGTASVVCLLNNFYPREAKVQWKVDNALQSGNSQESVTEQDSKDSTYSLSSTLTLSKADYEKHKVYACEVTHQGLSSPVTKSFNRGEC
notes: a CD40 Fab fused to the N-terminus of the FAP crossFab on the knob chain; also called CD40 × FAP 2 + 1 head-to-tail; 2 + 1 head-to-tail format

binding result [1]: no binding (tested: 500 nM)
EC50, activation of HEK-Blue CD40L cells (SEAP) with murine FAP-coated Dynabeads (human CD40 [5]): 0.125 nM
EC50 (human CD40 [6]): 0.09 µg/mL
EC50 (human CD40 [7]): 0.104 nM
Kd [8]: 4.6 nM
koff [8]: 0.00781 s⁻¹
kon [8]: 1.69e+06 M⁻¹ s⁻¹
EC50, activation of human B cells with FAP-coated Dynabeads, increase of CD86 expression (human CD40 [9]): 0.072 nM
EC50, activation of human Daudi cells (CD70 expression) with FAP-coated Dynabeads (human CD40 [10]): 0.756 nM
B2: P1AD4470 CD40 IgG (antibody, V domains shown)
VH: EVQLVESGGGLVQPGGSLRLSCAASGYSFTGYYIHWVRQAPGKGLEWVARVIPNAGGTSYNQKFKGRFTLSVDNSKNTAYLQMNSLRAEDTAVYYCAREGIYWWGQGTLVTVSS
VL: DIQMTQSPSSLSASVGDRVTITCRSSQSLVHSNGNTFLHWYQQKPGKAPKLLIYTVSNRFSGVPSRFSGSGSGTDFTLTISSLQPEDFATYFCSQTTHVPWTFGQGTKVEIKR
notes: bivalent anti-human CD40 IgG1; cross-linked with anti-human Fc F(ab')2 in the functional assays; also called CD40 IgG1 PGLALA; CD40 IgG1
